This is an account of results in patent US20230257470A1 (published 2023).

T1: human FcγRIIa type R (human, UniProt P12318 36-217)
T1 construct: also called FcγRIIaR; Fc γ RIIaR
T1 chain: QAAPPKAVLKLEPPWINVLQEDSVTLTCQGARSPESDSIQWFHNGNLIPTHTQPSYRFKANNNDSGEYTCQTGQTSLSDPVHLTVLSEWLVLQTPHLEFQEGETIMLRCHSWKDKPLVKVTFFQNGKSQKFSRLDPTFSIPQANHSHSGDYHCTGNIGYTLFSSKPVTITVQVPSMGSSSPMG

T2: human FcγRIIb (human, UniProt P31994 43-217)
T2 construct: also called FcγIIB
T2 sequence: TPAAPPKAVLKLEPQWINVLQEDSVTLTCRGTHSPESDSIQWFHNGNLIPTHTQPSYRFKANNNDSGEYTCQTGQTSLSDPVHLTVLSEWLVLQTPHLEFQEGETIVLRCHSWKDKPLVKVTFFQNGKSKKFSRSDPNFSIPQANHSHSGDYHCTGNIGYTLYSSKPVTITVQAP

T3: human FcγRIIa(R) (allotype R131) (human, UniProt P12318 36-217)
T3 construct: Soluble analyte in SPR; also called hFcgRIIa(R); FcgRIIaR
T3 chain: T1 chain

T4: human FcγRIIb (human, UniProt P31994 43-217, limits assumed)
T4 construct: Soluble analyte in SPR; also called hFcgRIIb; FcgRIIb
T4 sequence: T2 sequence

T5: human FcγRIIa(H) (allotype H131) (human, UniProt P12318 36-217)
T5 construct: Soluble analyte in SPR; also called hFcgRIIa(H); FcgRIIaH
T5 sequence: T1 chain with R133H

B1: IL6R-F652/IL6R-L (antibody, human IgG1)
heavy: QVQLQESGPGLVKPSETLSLTCAVSGHSISHDHAWSWVRQPPGEGLEWIGFISYSGITNYNPSLQGRVTISRDNSKNTLYLQMNSLRAEDTAVYYCARSLARTTAMDYWGEGTLVTVSSASTKGPSVFPLAPSSKSTSGGTAALGCLVKDYFPEPVTVSWNSGALTSGVHTFPAVLQSSGLYSLSSVVTVPSSSLGTQTYICNVNHKPSNTKVDKKVEPKSCDKTHTCPPCPAPELLGGDSVFLFPPKPKDTLYISRTPEVTCVVVDVSHEDPEVKFNWYVDGVEVHNAKTKPREEQYNSTYRVVSVLTVLHQDWLNGKEYKCKVSNKALPAPIEKTISKAKGQPREPQVYTLPPSRDELTKNQVSLTCLVKGFYPSDIAVEWESNGQPENNYKTTPPVLDSDGSFFLYSKLTVDKSRWQQGNVFSCSVMHEALHYHYTQKSLSLSP
light: DIQMTQSPSSLSASVGDRVTITCRASQDISSYLNWYQQKPGKAPKLLIYYTSRLHSGVPSRFSGSGSGTDFTFTISSLQPEDIATYYCQQGNTLPYTFGQGTKVEIK
notes: P238D introduced into IL6R-F11 (M252Y/N434Y in IL6R-G1d); also called P238D
B2: IL6R-PD094/IL6R-L (antibody, human IgG1)
heavy: B1 heavy with G239W
light: B1 light
notes: Alterations introduced into IL6R-F11; also called P238D/G237W
B3: IL6R-PD095/IL6R-L (antibody, human IgG1)
heavy: B1 heavy with G239Y
light: B1 light
notes: Alterations introduced into IL6R-F11; also called P238D/G237Y
B4: IL6R-PD082/IL6R-L (antibody, human IgG1)
heavy: B1 heavy with G239F
light: B1 light
notes: Alterations introduced into IL6R-F11; also called P238D/G237F
B5: IL6R-PD080/IL6R-L (antibody)
heavy: B1 heavy with G239D
light: B1 light
notes: Alterations introduced into IL6R-F11; also called P238D/G237D
B6: IL6R-PD081/IL6R-L (antibody, human IgG1)
heavy: B1 heavy with G239E
light: B1 light
notes: Alterations introduced into IL6R-F11; also called P238D/G237E
B7: IL6R-PD079/IL6R-L (antibody, human IgG1)
heavy: B1 heavy with G239A
light: B1 light
notes: Alterations introduced into IL6R-F11; also called P238D/G237A
B8: IL6R-PD097/IL6R-L (antibody, human IgG1)
heavy: B1 heavy with S241D
light: B1 light
notes: Alterations introduced into IL6R-F11; also called P238D/S239D
B9: IL6R-PD086/IL6R-L (antibody, human IgG1)
heavy: B1 heavy with G239L
light: B1 light
notes: Alterations introduced into IL6R-F11; also called P238D/G237L
B10: IL6R-PD087/IL6R-L (antibody, human IgG1)
heavy: B1 heavy with G239M
light: B1 light
notes: Alterations introduced into IL6R-F11; also called P238D/G237M
B11: IL6R-PD043/IL6R-L (antibody, human IgG1)
heavy: B1 heavy with L236Y
light: B1 light
notes: Alterations introduced into IL6R-F11; also called P238D/L234Y
B12: IL6R-PD042/IL6R-L (antibody, human IgG1)
heavy: B1 heavy with L236W
light: B1 light
notes: Alterations introduced into IL6R-F11; also called P238D/L234W
B13: GpH7-B3 variant P329S / GpL16-k0 (antibody, human IgG1)
heavy: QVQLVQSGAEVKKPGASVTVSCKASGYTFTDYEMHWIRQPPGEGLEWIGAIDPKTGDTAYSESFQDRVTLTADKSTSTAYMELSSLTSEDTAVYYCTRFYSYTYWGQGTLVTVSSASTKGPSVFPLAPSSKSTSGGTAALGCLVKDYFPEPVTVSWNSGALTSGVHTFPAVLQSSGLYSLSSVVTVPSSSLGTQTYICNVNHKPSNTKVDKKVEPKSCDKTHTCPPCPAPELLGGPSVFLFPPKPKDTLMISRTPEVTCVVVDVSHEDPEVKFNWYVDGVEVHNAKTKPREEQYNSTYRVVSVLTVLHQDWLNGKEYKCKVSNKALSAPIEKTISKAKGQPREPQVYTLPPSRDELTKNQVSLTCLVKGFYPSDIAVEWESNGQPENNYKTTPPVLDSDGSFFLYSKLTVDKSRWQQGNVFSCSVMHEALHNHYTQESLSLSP
light: DIVMTQSPLSLPVTPGEPASISCQASESLVHSNRNTYLHWYLQKPGQSPQLLIYKVSNRFSGVPDRFSGSGSGTDFTLKISRVEAEDVGVYYCSQNTHVPPTFGQGTKVEIE
notes: Anti-glypican-3 human IgG1 with B3 constant region; position by EU numbering
B14: GpH7-B3 variant P329Y / GpL16-k0 (antibody, human IgG1)
heavy: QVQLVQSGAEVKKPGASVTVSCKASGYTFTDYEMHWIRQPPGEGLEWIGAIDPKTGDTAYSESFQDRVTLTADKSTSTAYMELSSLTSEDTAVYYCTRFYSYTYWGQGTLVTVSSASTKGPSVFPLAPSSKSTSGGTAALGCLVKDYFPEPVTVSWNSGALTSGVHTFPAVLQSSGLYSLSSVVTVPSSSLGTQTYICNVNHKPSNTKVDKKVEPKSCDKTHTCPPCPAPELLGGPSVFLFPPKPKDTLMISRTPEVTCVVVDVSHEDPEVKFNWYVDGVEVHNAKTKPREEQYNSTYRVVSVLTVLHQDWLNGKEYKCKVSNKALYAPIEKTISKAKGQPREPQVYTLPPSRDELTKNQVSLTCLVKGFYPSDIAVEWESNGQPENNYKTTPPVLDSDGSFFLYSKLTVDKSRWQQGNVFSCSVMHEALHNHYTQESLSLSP
light: B13 light
notes: as for B13
B15: GpH7-B3 variant P329W / GpL16-k0 (antibody, human IgG1)
heavy: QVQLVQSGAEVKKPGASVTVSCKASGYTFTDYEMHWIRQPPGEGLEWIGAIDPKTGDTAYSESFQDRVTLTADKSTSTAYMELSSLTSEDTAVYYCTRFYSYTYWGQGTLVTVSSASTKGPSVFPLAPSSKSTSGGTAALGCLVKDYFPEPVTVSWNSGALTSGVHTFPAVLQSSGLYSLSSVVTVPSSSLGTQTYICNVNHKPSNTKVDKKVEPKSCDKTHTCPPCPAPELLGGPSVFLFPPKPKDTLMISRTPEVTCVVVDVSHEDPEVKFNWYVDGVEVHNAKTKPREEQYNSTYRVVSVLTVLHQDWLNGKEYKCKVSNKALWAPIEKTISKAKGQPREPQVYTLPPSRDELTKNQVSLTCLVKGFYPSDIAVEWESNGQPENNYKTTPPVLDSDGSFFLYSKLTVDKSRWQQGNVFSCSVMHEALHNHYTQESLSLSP
light: B13 light
notes: as for B13
B16: GpH7-B3 variant P331K / GpL16-k0 (antibody, human IgG1)
heavy: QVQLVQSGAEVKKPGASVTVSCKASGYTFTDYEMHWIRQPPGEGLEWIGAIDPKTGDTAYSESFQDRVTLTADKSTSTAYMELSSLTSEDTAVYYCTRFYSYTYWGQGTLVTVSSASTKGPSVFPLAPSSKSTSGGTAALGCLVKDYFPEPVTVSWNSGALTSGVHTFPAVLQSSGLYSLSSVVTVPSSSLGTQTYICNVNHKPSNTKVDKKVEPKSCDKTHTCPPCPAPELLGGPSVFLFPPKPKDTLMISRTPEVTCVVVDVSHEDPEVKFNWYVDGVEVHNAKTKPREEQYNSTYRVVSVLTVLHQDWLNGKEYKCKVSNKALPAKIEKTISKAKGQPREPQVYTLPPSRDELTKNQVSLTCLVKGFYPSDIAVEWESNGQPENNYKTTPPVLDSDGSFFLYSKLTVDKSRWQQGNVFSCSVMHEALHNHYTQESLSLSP
light: B13 light
notes: as for B13
B17: GpH7-B3 variant P331R / GpL16-k0 (antibody, human IgG1)
heavy: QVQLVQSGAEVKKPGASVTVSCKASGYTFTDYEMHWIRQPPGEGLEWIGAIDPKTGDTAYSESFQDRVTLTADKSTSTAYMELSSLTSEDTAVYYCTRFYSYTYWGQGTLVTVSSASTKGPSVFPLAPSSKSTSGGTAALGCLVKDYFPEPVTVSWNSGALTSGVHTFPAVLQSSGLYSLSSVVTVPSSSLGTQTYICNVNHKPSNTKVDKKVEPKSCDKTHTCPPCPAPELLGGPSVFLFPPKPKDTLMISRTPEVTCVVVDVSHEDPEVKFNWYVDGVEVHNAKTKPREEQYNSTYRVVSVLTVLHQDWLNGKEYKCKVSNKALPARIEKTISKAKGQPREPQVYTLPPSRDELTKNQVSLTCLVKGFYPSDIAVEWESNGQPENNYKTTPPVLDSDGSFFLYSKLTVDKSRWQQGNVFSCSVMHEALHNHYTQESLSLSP
light: B13 light
notes: as for B13

Residue numbers refer to the chain shown, from its start. Numbers in names are those of the source.

The target in one assay is T1, human FcγRIIa type R. Nature of the assay: SPR (Biacore), captured antibody, FcγR as analyte; binding amount divided by that of IL6R-F652/IL6R-L, times 100. A general note: Surface plasmon resonance follows binding to a sensor surface in real time, without labels.
In the case of B1, the “RELATIVE BINDING ACTIVITY FOR FcγRIIaR” value is 100 relative (IL6R-F652/IL6R-L = 100).
On the same count and under the same terms, in the case of B2 it was 593 relative (IL6R-F652/IL6R-L = 100); in that of B3, 543 relative (IL6R-F652/IL6R-L = 100).
On the same count and under the same terms, in the case of B4 it was 380 relative (IL6R-F652/IL6R-L = 100); in that of B5, 222 relative (IL6R-F652/IL6R-L = 100); in that of B6, 117 relative (IL6R-F652/IL6R-L = 100).
The same measure, in the same setting: in the case of B7 it was 138 relative (IL6R-F652/IL6R-L = 100); in that of B8, 844 relative (IL6R-F652/IL6R-L = 100); in that of B9, 268 relative (IL6R-F652/IL6R-L = 100).
As to B10, the “RELATIVE BINDING ACTIVITY FOR FcγRIIaR” value is 196 relative (IL6R-F652/IL6R-L = 100).
Same read-out and setting: to B11 belongs 175 relative (IL6R-F652/IL6R-L = 100); to B12, 240 relative (IL6R-F652/IL6R-L = 100).

The next assay deals with T2, human FcγRIIb. The assay is described as above.
Take B1: the “RELATIVE BINDING ACTIVITY FOR FcγRIIb” value is 100 relative (IL6R-F652/IL6R-L = 100).
On the same count and under the same terms, to B2 belongs 122 relative (IL6R-F652/IL6R-L = 100).
Still for that read-out and setting: to B3 belongs 124 relative (IL6R-F652/IL6R-L = 100).
In the case of B4, the “RELATIVE BINDING ACTIVITY FOR FcγRIIb” value was 108 relative (IL6R-F652/IL6R-L = 100).
Still for that read-out and setting: in the case of B5 it was 127 relative (IL6R-F652/IL6R-L = 100); in that of B6, 101 relative (IL6R-F652/IL6R-L = 100); in that of B7, 101 relative (IL6R-F652/IL6R-L = 100).
Same read-out and setting: to B8 belongs 139 relative (IL6R-F652/IL6R-L = 100); to B9, 112 relative (IL6R-F652/IL6R-L = 100).
On the same count and under the same terms, in the case of B10 it was 109 relative (IL6R-F652/IL6R-L = 100); in that of B11, 112 relative (IL6R-F652/IL6R-L = 100).
Take B12: the “RELATIVE BINDING ACTIVITY FOR FcγRIIb” value was 106 relative (IL6R-F652/IL6R-L = 100).

The target in the next assay is T3, human FcγRIIa(R) (allotype R131). The assay is described as follows: SPR (Biacore), antibody captured, FcγR analyte, 25 C; normalised to captured antibody, GpH7-B3/GpL16-k0 = 100.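 Note: antibodies held on sensor chips through immobilized antigen peptide, Protein A, Protein A/G or Protein L, with HBS-EP+ running buffer and FcγR in solution.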
Method: (§1) Interaction between each modified antibody and Fcγ receptor prepared in the manner described above was analyzed using the BIACORE™ T100 surface plasmon resonance system (GE Healthcare), BIACORE™ T200 surface plasmon resonance system (GE Healthcare), BIACORE™ A100 surface plasmon resonance system or BIACORE™ 4000 surface plasmon resonance system. HBS-EP+(GE Healthcare) was used for the running buffer, and measurements were carried out at 25° C. The chips used were chips in which antigen peptides, Protein A (Thermo Scientific), Protein A/G (Thermo Scientific) or Protein L (ACTIGEN® protein (Alltech or BioVision) were immobilized on the Series S Sensor Chip CM5 (GE Healthcare) or Series S Sensor Chip CM4 (GE Healthcare) by amine coupling, or chips in which preliminarily biotinylated antigen peptides were allowed to interact and then immobilized on the Series S Sensor Chip SA (certified) (GE Healthcare). The target antibodies were captured on these sensor chips, Fcγ receptor diluted with the running buffer was allowed to interact, followed by measurement of the amount of bound antibody. The amounts bound were compared between antibodies. However, since the amount of Fcγ receptor bound depends on the amount of captured antibody, the values used for comparison were first corrected by dividing the amount of Fcγ receptor bound by the captured amount of each antibody. Through reaction with 10 mM glycine-HCl at pH 1.5, the sensor chips were regenerated by washing off antibody captured on the sensor chips and used repeatedly.
(§2) Binding strength was evaluated according to the following method based on the results of analyzing the interaction with each FcγR. […] That value was then further multiplied by 100, and the resulting value was used as an indicator of relative binding activity to each FcγR.
On to B13, for which the “relative binding activity (parent antibody = 100)” value is 0 % of control.
Still for that read-out and setting: to B14 belongs -1 % of control.
The same measure, in the same setting: to B15 belongs 1 % of control; to B16, 72 % of control; to B17, 64 % of control.

For another assay, the target named is T4, human FcγRIIb. The description is as above.
Method: as §1, §2
In the case of B13, the “relative binding activity (parent antibody = 100)” value is 1 % of control.
Still for that read-out and setting: to B14 belongs -3 % of control.
Same read-out and setting: in the case of B15 it was 0 % of control; in that of B16, 63 % of control.
For the molecule B17, the “relative binding activity (parent antibody = 100)” value was 55 % of control.

The target of a further assay is T6, human FcγRIa (human, UniProt P12314 16-292, limits assumed).
T6 construct: Soluble analyte in SPR; also called hFcgRIa; FcgRIa
T6 sequence (P12314 16-292 limits assumed): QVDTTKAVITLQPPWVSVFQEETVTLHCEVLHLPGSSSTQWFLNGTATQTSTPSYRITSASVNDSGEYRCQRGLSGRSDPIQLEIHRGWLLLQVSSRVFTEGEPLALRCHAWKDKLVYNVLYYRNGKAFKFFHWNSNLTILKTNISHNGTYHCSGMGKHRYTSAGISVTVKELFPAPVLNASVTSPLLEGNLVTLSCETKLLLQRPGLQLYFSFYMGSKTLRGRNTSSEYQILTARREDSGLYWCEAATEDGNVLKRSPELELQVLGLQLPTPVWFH
The description is as above.
Method: as §1, §2
As to B13, the “relative binding activity (parent antibody = 100)” value is 60 % of control.
Same read-out and setting: to B14 belongs 76 % of control; to B15, 94 % of control; to B16, 98 % of control.
On to B17, for which the “relative binding activity (parent antibody = 100)” value is 95 % of control.

Another assay concerns the target T5, human FcγRIIa(H) (allotype H131). The description is as above.
Method: as §1, §2
Turning to B13, the “relative binding activity (parent antibody = 100)” value was 1 % of control.
The same measure, in the same setting: to B14 belongs 0 % of control; to B15, 0 % of control.
Still for that read-out and setting: in the case of B16 it was 58 % of control.
On the same count and under the same terms, in the case of B17 it was 59 % of control.

For the next assay, the target named is T7, human FcγRIIIa(F) (allotype F158) (human, UniProt P08637 17-208, limits assumed).
T7 construct: also called hFcgRIIIa(F); FcgRIIIaF
T7 sequence (P08637 other isoform, or with tags, fused parts or gaps limits assumed): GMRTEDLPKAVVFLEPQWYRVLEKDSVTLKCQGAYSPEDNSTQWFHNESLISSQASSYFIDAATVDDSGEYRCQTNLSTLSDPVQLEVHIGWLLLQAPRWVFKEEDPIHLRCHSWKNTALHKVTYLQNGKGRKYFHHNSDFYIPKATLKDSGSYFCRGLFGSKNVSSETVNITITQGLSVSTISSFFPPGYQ
Described as above.
Method: as §1, §2
As to B13, the “relative binding activity (parent antibody = 100)” value is 1 % of control.
The same measure, in the same setting: in the case of B14 it was 0 % of control; in that of B15, 0 % of control; in that of B16, 34 % of control.
Still for that read-out and setting: to B17 belongs 38 % of control.
